The supplement of paper PMC5998384

Legend:
HeLa Kyoto [1] = experiment: thermal stability score vs G1/S (z-score of summed log2 fold changes over temperatures); higher = more thermally stable than in G1/S
HeLa Kyoto [2] = experiment: solubility change mitosis vs G1/S (difference of NP-40 vs SDS log2 ratios) (log2 ratio difference); higher = more soluble in mitosis
HeLa Kyoto [3] = experiment: solubility in G1/S (NP-40 vs SDS abundance) (log2 ratio); higher = more soluble; details: cell cycle stage: G1/S
[4] = cell cycle stage: early G1 (4.5 h after nocodazole release)
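For solubility change mitosis vs G1/S (difference of NP-40 vs SDS log2 ratios) in this document: synchronized HeLa Kyoto cells (double thymidine block for G1/S, nocodazole release for mitosis), protein amounts in NP-40 versus SDS lysates quantified by mass spectrometry, three biological replicates.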
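For solubility in G1/S (NP-40 vs SDS abundance) in this document: HeLa Kyoto cells arrested at G1/S by double thymidine block, proteins quantified by TMT10plex mass spectrometry in mild NP-40 versus SDS extracts, three biological replicates.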
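For thermal stability score vs G1/S (z-score of summed log2 fold changes over temperatures) in this document: synchronized HeLa Kyoto cells, proteins quantified by TMT10plex mass spectrometry, three biological replicates, mitosis taken 0.5 h after nocodazole release, G1/S directly after double thymidine block.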

Row | Sequence | thermal stability score (HeLa Kyoto [1]; [4]) | thermal stability score (HeLa Kyoto [1]; cell cycle stage: mitosis) | solubility change mitosis (log2) (HeLa Kyoto [2]) | solubility in G1/S (log2) (HeLa Kyoto [3])
1 | MATAPSYPAGLPGSPGPGSPPPPGGLELQSPPPLLPQIPAPGSGVSFHIQIGLTREFVLLPAASELAHVKQLACSIVDQKFPECGFYGLYDKILLFKHDPTSANLLQLVRSSGDIQEGDLVEVVLSASATFEDFQIRPHALTVHSYRAPAFCDHCGEMLFGLVRQGLKCDGCGLNYHKRCAFSIPNNCSGARKRRLSSTSLASGHSVRLGTSESLPCTAEELSRSTTELLPRRPPSSSSSSSASSYTGRPIELDKMLLSKVKVPHTFLIHSYTRPTVCQACKKLLKGLFRQGLQCKDCKFNCHKRCATRVPNDCLGEALINGDVPMEEATDFSEADKSALMDESEDSGVIPGSHSENALHASEEEEGEGGKAQSSLGYIPLMRVVQSVRHTTRKSSTTLREGWVVHYSNKDTLRKRHYWRLDCKCITLFQNNTTNRYYKEIPLSEILTVESAQNFSLVPPGTNPHCFEIVTANATYFVGEMPGGTPGGPSGQGAEAARGWETAIRQALMPVILQDAPSAPGHAPHRQASLSISVSNSQIQENVDIATVYQIFPDEVLGSGQFGVVYGGKHRKTGRDVAVKVIDKLRFPTKQESQLRNEVAILQSLRHPGIVNLECMFETPEKVFVVMEKLHGDMLEMILSSEKGRLPERLTKFLITQILVALRHLHFKNIVHCDLKPENVLLASADPFPQVKLCDFGFARIIGEKSFRRSVVGTPAYLAPEVLLNQGYNRSLDMWSVGVIMYVSLSGTFPFNEDEDINDQIQNAAFMYPASPWSHISAGAIDLINNLLQVKMRKRYSVDKSLSHPWLQEYQTWLDLRELEGKMGERYITHESDDARWEQFAAEHPLPGSGLPTDRDLGGACPPQDHDMQGLAERISVL [PRKD2] | 0.521 | 0.296 | -0.188 | -0.115
2 | MAVEDEGLRVFQSVKIKIGEAKNLPSYPGPSKMRDCYCTVNLDQEEVFRTKIVEKSLCPFYGEDFYCEIPRSFRHLSFYIFDRDVFRRDSIIGKVAIQKEDLQKYHNRDTWFQLQHVDADSEVQGKVHLELRLSEVITDTGVVCHKLATRIVECQGLPIVNGQCDPYATVTLAGPFRSEAKKTKVKRKTNNPQFDEVFYFEVTRPCSYSKKSHFDFEEEDVDKLEIRVDLWNASNLKFGDEFLGELRIPLKVLRQSSSYEAWYFLQPRDNGSKSLKPDDLGSLRLNVVYTEDHVFSSDYYSPLRDLLLKSADVEPVSASAAHILGEVCREKQEAAVPLVRLFLHYGRVVPFISAIASAEVKRTQDPNTIFRGNSLASKCIDETMKLAGMHYLHVTLKPAIEEICQSHKPCEIDPVKLKDGENLENNMENLRQYVDRVFHAITESGVSCPTVMCDIFFSLREAAAKRFQDDPDVRYTAVSSFIFLRFFAPAILSPNLFQLTPHHTDPQTSRTLTLISKTVQTLGSLSKSKSASFKESYMATFYEFFNEQKYADAVKNFLDLISSSGRRDPKSVEQPIVLKEGFMIKRAQGRKRFGMKNFKKRWFRLTNHEFTYHKSKGDQPLYSIPIENILAVEKLEEESFKMKNMFQVIQPERALYIQANNCVEAKDWIDILTKVSQCNQKRLTVYHPSAYLSGHWLCCRAPSDSAPGCSPCTGGLPANIQLDIDGDRETERIYSLFNLYMSKLEKMQEACGSKSVYDGPEQEEYSTFVIDDPQETYKTLKQVIAGVGALEQEHAQYKRDKFKKTKYGSQEHPIGDKSFQNYIRQQSETSTHSI [RASA3] | 0.315 | 0.353 | -0.19 | -0.118
3 | MDAATLTYDTLRFAEFEDFPETSEPVWILGRKYSIFTEKDEILSDVASRLWFTYRKNFPAIGGTGPTSDTGWGCMLRCGQMIFAQALVCRHLGRDWRWTQRKRQPDSYFSVLNAFIDRKDSYYSIHQIAQMGVGEGKSIGQWYGPNTVAQVLKKLAVFDTWSSLAVHIAMDNTVVMEEIRRLCRTSVPCAGATAFPADSDRHCNGFPAGAEVTNRPSPWRPLVLLIPLRLGLTDINEAYVETLKHCFMMPQSLGVIGGKPNSAHYFIGYVGEELIYLDPHTTQPAVEPTDGCFIPDESFHCQHPPCRMSIAELDPSIAVGFFCKTEDDFNDWCQQVKKLSLLGGALPMFELVELQPSHLACPDVLNLSLDSSDVERLERFFDSEDEDFEILSL [ATG4B] | -0.634 | 1.02 | -0.28 | -0.00856
4 | MDAWVRFSAQSQARERLCRAAQYACSLLGHALQRHGASPELQKQIRQLESHLSLGRKLLRLGNSADALESAKRAVHLSDVVLRFCITVSHLNRALYFACDNVLWAGKSGLAPRVDQEKWAQRSFRYYLFSLIMNLSRDAYEIRLLMEQESSACSRRLKGSGGGVPGGSETGGLGGPGTPGGGLPQLALKLRLQVLLLARVLRGHPPLLLDVVRNACDLFIPLDKLGLWRCGPGIVGLCGLVSSILSILTLIYPWLRLKP [PEX11B] | 0.106 | 0.142 | 0.18 | -0.779
5 | MDGLQASAGPLRRGRPKRRRKPQPHSGSVLALPLRSRKIRKQLRSVVSRMAALRTQTLPSENSEESRVESTADDLGDALPGGAAVAAVPDAARREPYGHLGPAELLEASPAARSLQTPSARLVPASAPPARLVEVPAAPVRVVETSALLCTAQHLAAVQSSGAPATASGPQVDNTGGEPAWDSPLRRVLAELNRIPSSRRRAARLFEWLIAPMPPDHFYRRLWEREAVLVRRQDHTYYQGLFSTADLDSMLRNEEVQFGQHLDAARYINGRRETLNPPGRALPAAAWSLYQAGCSLRLLCPQAFSTTVWQFLAVLQEQFGSMAGSNVYLTPPNSQGFAPHYDDIEAFVLQLEGRKLWRVYRPRVPTEELALTSSPNFSQDDLGEPVLQTVLEPGDLLYFPRGFIHQAECQDGVHSLHLTLSTYQRNTWGDFLEAILPLAVQAAMEENVEFRRGLPRDFMDYMGAQHSDSKDPRRTAFMEKVRVLVARLGHFAPVDAVADQRAKDFIHDSLPPVLTDRERALSVYGLPIRWEAGEPVNVGAQLTTETEVHMLQDGIARLVGEGGHLFLYYTVENSRVYHLEEPKCLEIYPQQADAMELLLGSYPEFVRVGDLPCDSVEDQLSLATTLYDKGLLLTKMPLALN [NO66] | -0.151 | 0.066 | 0.755 | -0.879
6 | MDLHRAAFKMENSSYLPNPLASPALMVLASTAEASRDASIPCQQPRPFGVPVSVDKDVHIPFTNGSYTFASMYHRQGGVPGTFANRDFPPSLLHLHPQFAPPNLDCTPISMLNHSGVGAFRPFASTEDRESYQSAFTPAKRLKNCHDTESPHLRFSDADGKEYDFGTQLPSSSPGSLKVDDTGKKIFAVSGLISDREASSSPEDRNDRCKKKAAALFDSQAPICPICQVLLRPSELQEHMEQELEQLAQLPSSKNSLLKDAMAPGTPKSLLLSASIKREGESPTASPHSSATDDLHHSDRYQTFLRVRANRQTRLNARIGKMKRRKQDEGQREGSCMAEDDAVDIEHENNNRFEEYEWCGQKRIRATTLLEGGFRGSGFIMCSGKENPDSDADLDVDGDDTLEYGKPQYTEADVIPCTGEEPGEAKEREALRGAVLNGGPPSTRITPEFSKWASDEMPSTSNGESSKQEAMQKTCKNSDIEKITEDSAVTTFEALKARVRELERQLSRGDRYKCLICMDSYSMPLTSIQCWHVHCEECWLRTLGAKKLCPQCNTITAPGDLRRIYL [RNF220] | 0.0151 | -0.144 | -0.0624 | 0.298
7 | MDRAPTEQNVKLSAEVEPFIPQKKSPDTFMIPMALPNDNGSVSGVEPTPIPSYLITCYPFVQENQSNRQFPLYNNDIRWQQPNPNPTGPYFAYPIISAQPPVSTEYTYYQLMPAPCAQVMGFYHPFPTPYSNTFQAANTVNAITTECTERPSQLGQVFPLSSHRSRNSNRGSVVPKQQLLQQHIKSKRPLVKNVATQKETNAAGPDSRSKIVLLVDASQQTDFPSDIANKSLSETTATMLWKSKGRRRRASHPTAESSSEQGASEADIDSDSGYCSPKHSNNQPAAGALRNPDSGTMNHVESSMCAGGVNWSNVTCQATQKKPWMEKNQTFSRGGRQTEQRNNSQVGFRCRGHSTSSERRQNLQKRPDNKHLSSSQSHRSDPNSESLYFEDEDGFQELNENGNAKDENIQQKLSSKVLDDLPENSPINIVQTPIPITTSVPKRAKSQKKKALAAALATAQEYSEISMEQKKLQEALSKAAGKKNKTPVQLDLGDMLAALEKQQQAMKARQITNTRPLSYTVVTAASFHTKDSTNRKPLTKSQPCLTSFNSVDIASSKAKKGKEKEIAKLKRPTALKKVILKEREEKKGRLTVDHNLLGSEEPTEMHLDFIDDLPQEIVSQEDTGLSMPSDTSLSPASQNSPYCMTPVSQGSPASSGIGSPMASSTITKIHSKRFREYCNQVLCKEIDECVTLLLQELVSFQERIYQKDPVRAKARRRLVMGLREVTKHMKLNKIKCVIISPNCEKIQSKGGLDEALYNVIAMAREQEIPFVFALGRKALGRCVNKLVPVSVVGIFNYFGAESLFNKLVELTEEARKAYKDMVAAMEQEQAEEALKNVKKVPHHMGHSRNPSAASAISFCSVISEPISEVNEKEYETNWRNMVETSDGLEASENEKEVSCKHSTSEKPSKLPFDTPPIGKQPSLVATGSTTSATSAGKSTASDKEEVKPDDLEWASQQSTETGSLDGSCRDLLNSSITSTTSTLVPGMLEEEEDEDEEEEEDYTHEPISVEVQLNSRIESWVSETQRTMETLQLGKTLNGSEEDNVEQSGEEEAEAPEVLEPGMDSEAWTADQQASPGQQKSSNCSSLNKEHSDSNYTTQTT [SECISBP2L] | 1.54 | 2.5 | 0.0796 | -0.226
8 | MEEGAPRQPGPSQWPPEDEKEVIRRAIQKELKIKEGVENLRRVATDRRHLGHVQQLLRSSNRRLEQLHGELRELHARILLPGPGPGPAEPVASGPRPWAEQLRARHLEALRRQLHVELKVKQGAENMTHTCASGTPKERKLLAAAQQMLRDSQLKVALLRMKISSLEASGSPEPGPELLAEELQHRLHVEAAVAEGAKNVVKLLSSRRTQDRKALAEAQAQLQESSQKLDLLRLALEQLLEQLPPAHPLRSRVTRELRAAVPGYPQPSGTPVKPTALTGTLQVRLLGCEQLLTAVPGRSPAAALASSPSEGWLRTKAKHQRGRGELASEVLAVLKVDNRVVGQTGWGQVAEQSWDQTFVIPLERARELEIGVHWRDWRQLCGVAFLRLEDFLDNACHQLSLSLVPQGLLFAQVTFCDPVIERRPRLQRQERIFSKRRGQDFLRASQMNLGMAAWGRLVMNLLPPCSSPSTISPPKGCPRTPTTLREASDPATPSNFLPKKTPLGEEMTPPPKPPRLYLPQEPTSEETPRTKRPHMEPRTRRGPSPPASPTRKPPRLQDFRCLAVLGRGHFGKVLLVQFKGTGKYYAIKALKKQEVLSRDEIESLYCEKRILEAVGCTGHPFLLSLLACFQTSSHACFVTEFVPGGDLMMQIHEDVFPEPQARFYVACVVLGLQFLHEKKIIYRDLKLDNLLLDAQGFLKIADFGLCKEGIGFGDRTSTFCGTPEFLAPEVLTQEAYTRAVDWWGLGVLLYEMLVGECPFPGDTEEEVFDCIVNMDAPYPGFLSVQGLEFIQKLLQKCPEKRLGAGEQDAEEIKVQPFFRTTNWQALLARTIQPPFVPTLCGPADLRYFEGEFTGLPPALTPPAPHSLLTARQQAAFRDFDFVSERFLEP [PKN3] | -0.36 | -0.411 | 0.0781 | -0.177
9 | MEGLLTRCRALPALATCSRQLSGYVPCRFHHCAPRRGRRLLLSRVFQPQNLREDRVLSLQDKSDDLTCKSQRLMLQVGLIYPASPGCYHLLPYTVRAMEKLVRVIDQEMQAIGGQKVNMPSLSPAELWQATNRWDLMGKELLRLRDRHGKEYCLGPTHEEAITALIASQKKLSYKQLPFLLYQVTRKFRDEPRPRFGLLRGREFYMKDMYTFDSSPEAAQQTYSLVCDAYCSLFNKLGLPFVKVQADVGTIGGTVSHEFQLPVDIGEDRLAICPRCSFSANMETLDLSQMNCPACQGPLTKTKGIEVGHTFYLGTKYSSIFNAQFTNVCGKPTLAEMGCYGLGVTRILAAAIEVLSTEDCVRWPSLLAPYQACLIPPKKGSKEQAASELIGQLYDHITEAVPQLHGEVLLDDRTHLTIGNRLKDANKFGYPFVIIAGKRALEDPAHFEVWCQNTGEVAFLTKDGVMDLLTPVQTV [PARS2] | -2.04 | -2.68 | -0.176 | -0.0434
